Patent publication US20220340657A1 (L AND L BIO CO LTD NINGBO CHINA, published 2022)

Tests used:
human LAG-3-his [1] = molecular target: T1, human LAG-3-his (human, UniProt P18627 23-422); experiment: ELISA on coated human LAG-3-his, anti-human HRP, OD450 (Example 3) [panel a]
T1 construct: range 23-422; also called hLAG-3-his; hLAG-3
T1 sequence: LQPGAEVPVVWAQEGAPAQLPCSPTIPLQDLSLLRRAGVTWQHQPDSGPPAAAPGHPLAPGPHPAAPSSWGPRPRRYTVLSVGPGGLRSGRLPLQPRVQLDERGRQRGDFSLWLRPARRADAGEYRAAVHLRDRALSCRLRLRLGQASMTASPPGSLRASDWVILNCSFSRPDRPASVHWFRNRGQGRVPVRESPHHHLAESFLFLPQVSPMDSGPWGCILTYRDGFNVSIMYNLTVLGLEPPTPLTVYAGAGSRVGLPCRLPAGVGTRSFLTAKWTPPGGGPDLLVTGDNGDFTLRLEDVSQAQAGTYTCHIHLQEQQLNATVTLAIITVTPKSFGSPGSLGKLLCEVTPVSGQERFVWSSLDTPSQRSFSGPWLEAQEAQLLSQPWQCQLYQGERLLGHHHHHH
Procedure: (§1) After discarding the liquid, a blocking solution of 5% skimmed milk (Bright skimmed milk powder) diluted with PBS was added at 230 μl per well, followed by incubating at 37° C. for 3 hours or 4° C. overnight (16-18 hours) for blocking. Subsequently, the blocking solution was discarded, and the micropiate was washed 5 times with PBST buffer (pH 7.4 PBS containing 0.05% tweeen-20). Then 50 μl/well of the supernatant (containing the antibody to be tested) or a starting concentration of 10 μg/ml of the antibody to be tested, which was diluted 5 times in gradient, was added, followed by incubating the mixture for 1 hour at 37° C. […] After washing the microplate 5 times with PBST, 50 μl/well TIMB chromogenic substrate (KPL, Cat. No.: 52-00-03) was added, and then incubated for […] at room temperature. Finally, 50 μl/well of 1 M H₂SO₄ was added to stop the reaction. The absorbance value at 450 nm was read by […] GO microplate reader (ThermoFisher, Cat. No.: 51119200). The clones with high affinity were selected according to the OD value or the EC₅₀ value was calculated (for antibodies with known concentrations).

bio-LAG3-mFc [2] = molecular target: T2, bio-LAG3-mFc (human, UniProt P18627 23-450, biotin-labelled); experiment: blocking ELISA, LAG-3 on Daudi cells
T2 construct: also called hLAG-3
T2 sequence (looked up): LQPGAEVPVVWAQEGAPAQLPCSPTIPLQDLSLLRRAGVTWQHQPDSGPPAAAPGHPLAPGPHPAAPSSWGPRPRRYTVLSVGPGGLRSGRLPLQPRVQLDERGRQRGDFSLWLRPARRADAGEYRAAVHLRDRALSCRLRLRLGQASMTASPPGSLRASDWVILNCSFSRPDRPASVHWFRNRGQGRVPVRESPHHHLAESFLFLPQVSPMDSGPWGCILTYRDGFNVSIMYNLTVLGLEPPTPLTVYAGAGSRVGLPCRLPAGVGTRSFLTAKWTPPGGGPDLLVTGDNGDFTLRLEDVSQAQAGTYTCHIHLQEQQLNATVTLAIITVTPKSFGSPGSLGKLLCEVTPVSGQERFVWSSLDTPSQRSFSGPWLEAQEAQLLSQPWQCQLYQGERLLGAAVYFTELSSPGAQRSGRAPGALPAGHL

bio-LAG3-mFc [3] = molecular target: T2, bio-LAG3-mFc; experiment: blocking ELISA on fixed Daudi cells: antibody titrated against bio-LAG3-mFc binding to Daudi cells (MHC II), streptavidin-HRP, OD450 (Example 4) [panel b]
human LAG-3-his [4] = molecular target: T1, human LAG-3-his; experiment: ELISA on hLAG-3
Procedure: as §1

human LAG-3-his [5] = molecular target: T1, human LAG-3-his; experiment: ELISA on hLAG-3; remark: listed apart in the source
Procedure: as §1

bio-LAG3-mFc [6] = molecular target: T2, bio-LAG3-mFc; experiment: blocking ELISA, LAG-3 on Daudi cells; remark: listed apart in the source
human LAG-3-his [7] = molecular target: T1, human LAG-3-his; experiment: ELISA on human LAG3, sample stored at -80 C for 60 days
human PD-1 (hFc/his tag) [8] = molecular target: T3, human PD-1 (hFc/his tag) (human, UniProt Q15116 21-167); experiment: ELISA on human PD-1, sample stored at -80 C for 60 days
T3 construct: range 21-167; not shown: hFc or his tag

human LAG-3-his [9] = molecular target: T1, human LAG-3-his; experiment: ELISA on human LAG3, sample kept at 37 C for 5 days
Bio-LAG-his = molecular target: T4, Bio-LAG-his (UniProt P18627 23-450, biotin-labeled); experiment: double-sandwich ELISA: plate coated with PD-1, bispecific titrated, detected with Bio-LAG-his
T4 construct: Detection reagent of the double-sandwich ELISA; also called biotin-labeled LAG-3-his (ACROBiosystems); not shown: his tag of the bought product
T4 sequence (looked up): T2 sequence (looked up)
Procedure: Finally, 50 μl/well of 1M H₂SO₄ was added to stop the reaction.

human LAG-3-his [10] = molecular target: T1, human LAG-3-his; experiment: ELISA on human LAG3, sample stored at -80 C for 60 days; sample stored at -80 C for 60 days (reference value in brackets)
human PD-1 (hFc/his tag) [11] = molecular target: T3, human PD-1 (hFc/his tag); experiment: ELISA on coated human PD-1, OD450 (Example 13) [panel b]
human PD-1 (hFc/his tag) [12] = molecular target: T3, human PD-1 (hFc/his tag); experiment: ELISA on human PD-1
human LAG-3-his [13] = molecular target: T1, human LAG-3-his; experiment: ELISA on human LAG3, sample kept at 37 C for 10 days
human PD-1 (hFc/his tag) [14] = molecular target: T3, human PD-1 (hFc/his tag); experiment: ELISA on human PD-1, sample kept at 37 C for 10 days
human LAG-3-his [15] = molecular target: T1, human LAG-3-his; experiment: ELISA on human LAG-3
human LAG-3-his [16] = molecular target: T1, human LAG-3-his; experiment: ELISA on coated human LAG-3, OD450 (Example 3, Example 13) [panel a]
bio-LAG3-mFc [17] = molecular target: T2, bio-LAG3-mFc; experiment: blocking of LAG3 binding to Daudi cells
Procedure: The Daudi cell line (ATCC, CCL-213) was expanded and seeded into 96-well microplate at a density of 2×10⁵ cells/well, and then centrifuged at 1600 rpm for 10 min; thereafter the cells were fixed with 100 μl/well of a fixative solution for immunostaining (Shanghai Beyotime Biotechnology Co., Ltd., Cat. No.: P0098) for half an hour at room temperature. After washing with PBS (BasalMedia Biology, Cat. No.: B320) once, 5% milk was added with 230 μl per well, and the microplate was incubated for 2 hours at 37° C. for blocking, then was washed three times with PBST. […] The microplate was then incubated for 1 hour at 37° C. and washed 5 times with PBST. 50 μl/well of 1:1000 diluted streptavidin-HRP secondary antibody (GenScript, Cat. No.: M00091) was added to the microplate and incubated for 1 hour at 37° C. After washing the microplate 5 times with PBST, 50 μl/well TMB (Surmodic, Cat. No.: TTMB-1000-01) was added to the microplate for color development, and 50 μl/well 1M H₂SO₄ was added to stop the reaction. The microplate was then read by a microplate reader (MuitiskanGo Thermo, model 511919200), and the data were analyzed using GraphPad prism 5.

human PD-1 (hFc/his tag) [18] = molecular target: T3, human PD-1 (hFc/his tag); experiment: blocking of PD-1 binding to PD-L1
human PD-1 (hFc/his tag) [19] = molecular target: T3, human PD-1 (hFc/his tag); experiment: ELISA on human PD-1, sample kept at 37 C for 5 days

T3 sequence (Q15116 21-167, form in doubt): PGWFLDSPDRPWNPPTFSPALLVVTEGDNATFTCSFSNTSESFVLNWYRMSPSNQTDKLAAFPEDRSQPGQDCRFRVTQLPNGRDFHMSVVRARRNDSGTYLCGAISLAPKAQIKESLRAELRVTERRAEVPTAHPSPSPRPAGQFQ

B1: chimeric antibody mab23c (antibody, human IgG4 S228P, kappa, V domains shown)
VH: QVQLQQSGAELVRPGASVTLSCKASGYTFTDYEMHWVKQTPVHGLEWIGGIDPETEGIAYNQKFRGKAILTADKSSITAYMELRSLTSEDSAVYYCTNSNYYGGREAWFAYWGQGTLVTVSG
VL: DIQMIQSPSSLSASLGERVSLTCRASQDIGSSLNWLQQEPDGTIKRLIYATSSLDSGVPKRFSGSRSGSDYSLTISSLESEDFVDYYCLQYVTSPLTFGAGTKLELKR
notes: hIgG4
EC50 (read off the curve) (human LAG-3-his [1]): ~0.4 nM
IC50 (bio-LAG3-mFc [2]): 2.3 nM
fold better IC50 than Ref (bio-LAG3-mFc [2]): ~4 fold
IC50 (read off the curve) (bio-LAG3-mFc [3]): ~2 nM
EC50 (human LAG-3-his [4]): 0.166 nM
EC50 (human LAG-3-his [5]): 0.41 nM
IC50 (bio-LAG3-mFc [6]): 1.55 nM

B2: bispecific antibody (SBody) LB2371 (bispecific antibody, human IgG4 S228P, kappa)
light: EIVLTQSPATLSLSPGERATLSCRASKGVSTSGYSYLHWYQQKPGQAPRLLIYLASYLESGVPARFSGSGSGTDFTLTISSLEPEDFAVYYCQHSRDLPLTFGGGTKVEIKRTVAAPSVFIFPPSDEQLKSGTASVVCLLNNFYPREAKVQWKVDNALQSGNSQESVTEQDSKDSTYSLSSTLTLSKADYEKHKVYACEVTHQGLSSPVTKSFNRGEC
heavy: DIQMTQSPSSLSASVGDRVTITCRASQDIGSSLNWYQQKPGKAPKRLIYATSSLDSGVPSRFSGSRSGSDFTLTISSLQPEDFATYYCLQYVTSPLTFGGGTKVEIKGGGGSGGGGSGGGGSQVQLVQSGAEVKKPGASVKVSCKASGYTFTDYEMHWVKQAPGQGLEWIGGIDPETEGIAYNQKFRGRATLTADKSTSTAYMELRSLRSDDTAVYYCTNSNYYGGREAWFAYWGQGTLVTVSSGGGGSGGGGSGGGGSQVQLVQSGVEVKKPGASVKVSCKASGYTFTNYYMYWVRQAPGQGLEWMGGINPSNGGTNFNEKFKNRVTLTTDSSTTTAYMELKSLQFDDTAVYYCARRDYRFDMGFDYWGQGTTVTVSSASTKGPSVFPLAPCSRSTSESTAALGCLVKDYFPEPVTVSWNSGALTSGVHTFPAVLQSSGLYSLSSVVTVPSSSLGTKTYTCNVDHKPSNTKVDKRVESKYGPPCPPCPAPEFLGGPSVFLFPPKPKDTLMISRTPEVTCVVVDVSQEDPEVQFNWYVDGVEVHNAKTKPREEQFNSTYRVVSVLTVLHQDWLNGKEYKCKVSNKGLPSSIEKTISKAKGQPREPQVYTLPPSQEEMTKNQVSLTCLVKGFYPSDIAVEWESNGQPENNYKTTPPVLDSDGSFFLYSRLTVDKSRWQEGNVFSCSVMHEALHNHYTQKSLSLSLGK
notes: Ab2317VL-(G4S)3-Ab2317VH-(G4S)3-PemVH-Hc (hIgG4)
EC50 (human LAG-3-his [7]): 0.298 nM
EC50 (human PD-1 (hFc/his tag) [8]): 0.227 nM
EC50 (human LAG-3-his [9]): 0.251 nM
EC50 (Bio-LAG-his): 1.09 nM
EC50 (human LAG-3-his [10]): 0.298 nM
EC50 (read off the curve) (human PD-1 (hFc/his tag) [11]): ~0.1 nM
EC50 (human PD-1 (hFc/his tag) [12]): 0.128 nM
EC50 (human LAG-3-his [13]): 0.392 nM
EC50 (human PD-1 (hFc/his tag) [14]): 0.324 nM
EC50 (human LAG-3-his [15]): 0.179 nM
EC50 (read off the curve) (human LAG-3-his [16]): ~0.2 nM
IC50 (bio-LAG3-mFc [17]): 77.5 nM
IC50 (human PD-1 (hFc/his tag) [18]): 0.268 nM
EC50 (human PD-1 (hFc/his tag) [19]): 0.293 nM
